Reference: IntAct's records for PubMed 18615013

B1: Aurora kinase A (Homo sapiens), O14965 (parent)
chain: MDRSKENCISGPVKATAPVGGPKRVLVTQQFPCQNPLPVNSGQAQRVLCPSNSSQRIPLQAQKLVSSHKPVQNQKQKQLQATSVPHPVSRPLNNTQKSKQPLPSAPENNPEEELASKQKNEESKKRQWALEDFEIGRPLGKGKFGNVYLAREKQSKFILALKVLFKAQLEKAGVEHQLRREVEIQSHLRHPNILRLYGYFHDATRVYLILEYAPLGTVYRELQKLSKFDEQRTATYITELANALSYCHSKRVIHRDIKPENLLLGSAGELKIADFGWSVHAPSSRRTTLCGTLDYLPPEMIEGRMHDEKVDLWSLGVLCYEFLVGKPPFEANTYQETYKRISRVEFTFPDFVTEGARDLISRLLKHNPSQRPMLREVLEHPWITANSSKPSNCQNKESASKQS

Variants of: B1
Conditions: with plk1_human PLK1, P53350
plk1_human PLK1, P53350, sequence (P53350 whole entry): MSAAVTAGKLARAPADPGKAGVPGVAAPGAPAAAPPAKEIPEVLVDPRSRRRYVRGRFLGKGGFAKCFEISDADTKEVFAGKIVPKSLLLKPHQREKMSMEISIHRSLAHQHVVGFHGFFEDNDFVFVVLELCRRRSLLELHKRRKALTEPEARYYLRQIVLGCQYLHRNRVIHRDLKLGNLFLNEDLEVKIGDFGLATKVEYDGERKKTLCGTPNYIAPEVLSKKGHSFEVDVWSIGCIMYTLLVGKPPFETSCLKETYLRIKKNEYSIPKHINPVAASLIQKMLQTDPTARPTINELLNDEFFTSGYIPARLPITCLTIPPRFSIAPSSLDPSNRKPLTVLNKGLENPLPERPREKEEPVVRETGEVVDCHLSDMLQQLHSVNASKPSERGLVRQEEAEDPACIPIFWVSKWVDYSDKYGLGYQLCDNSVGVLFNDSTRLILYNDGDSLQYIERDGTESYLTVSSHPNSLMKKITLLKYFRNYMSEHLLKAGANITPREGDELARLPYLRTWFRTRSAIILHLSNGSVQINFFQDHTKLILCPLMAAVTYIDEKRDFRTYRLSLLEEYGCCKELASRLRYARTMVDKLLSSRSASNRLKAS

Row | effect of a mutation on the interaction | Variant
1 | disrupting interaction | K162R
